{"source": "patent US20150119340A1", "about": "“FUSION PEPTIDE AND USE THEREOF FOR CELL MEMBRANE PENETRATING” (Samsung Electronics Co., Ltd., priority 2013, published 2015)", "molecules": {"B1": {"name": "Tat-p16M7: Comparison conjugate of TAT peptide and p16M7 (SEQ ID NO: 20-SEQ ID NO: 16) (protein)", "chain": "RKKRRQRRRMEPAAGSSMEPSADKLATAAARGRVEEVRALLEAGADPNAPNSYGRRPIQVMMMGSARVAELLLKHGAEPNSADPATSTRPVHDAAREGFLDTLVVLHRAGARLDARDAWGRTPVDLAEELGHRDVARYLRAAAGGTRGSNHARIDAAEGPSDIPD", "modifications": "Synthetic (TAT peptide); Synthetic (p16 variant (p16M7))"}}, "system": "MDA-MB-231 cells", "assay": "Anticancer effect: cell viability (proliferation assay kit)", "type": "cell-based", "details": "various concentrations, 72 hours after the conjugate treatment, FIG. 11", "description": "MDA-MB-231 cells were incubated at the amount of about 5,000-8,000 cells/well in 96 well plate for 24 hours, and then, treated with each of the obtained conjugates MTS-BAA-p16M7 and Tat-p16M7 at various concentrations (refer to FIG. 11). 24 hours or 72 hours after, the viability of the cells was measured by reading the fluorescent intensity of viable cells using titer® proliferation assay kit (Promega) according to manufacturer's manual. The results were normalized based on the results from a control (non-treated) group, and plotted (the value of the control group: “1”). The experiment was conducted in triplicate, and the error was treated using a standard deviation.\nThe obtained results (results obtained at 72 hours after the conjugate treatment) are illustrated in FIG. 11.", "data": [{"molecule": "B1", "values": [{"measurement": "inhibitory effect on cancer cell proliferation (relative viability)", "value": "nearly no inhibitory effect on cancer cell proliferation"}]}]}
